B1: PTS system glucose-specific EIICB component (Escherichia coli (strain K12)), P69786 (parent)
chain: MFKNAFANLQKVGKSLMLPVSVLPIAGILLGVGSANFSWLPAVVSHVMAEAGGSVFANMPLIFAIGVALGFTNNDGVSALAAVVAYGIMVKTMAVVAPLVLHLPAEEIASKHLADTGVLGGIISGAIAAYMFNRFYRIKLPEYLGFFAGKRFVPIISGLAAIFTGVVLSFIWPPIGSAIQTFSQWAAYQNPVVAFGIYGFIERCLVPFGLHHIWNVPFQMQIGEYTNAAGQVFHGDIPRYMAGDPTAGKLSGGFLFKMYGLPAAAIAIWHSAKPENRAKVGGIMISAALTSFLTGITEPIEFSFMFVAPILYIIHAILAGLAFPICILLGMRDGTSFSHGLIDFIVLSGNSSKLWLFPIVGIGYAIVYYTIFRVLIKALDLKTPGREDATEDAKATGTSEMAPALVAAFGGKENITNLDACITRLRVSVADVSKVDQAGLKKLGAAGVVVAGSGVQAIFGTKSDNLKTEMDEYIRNH
partner: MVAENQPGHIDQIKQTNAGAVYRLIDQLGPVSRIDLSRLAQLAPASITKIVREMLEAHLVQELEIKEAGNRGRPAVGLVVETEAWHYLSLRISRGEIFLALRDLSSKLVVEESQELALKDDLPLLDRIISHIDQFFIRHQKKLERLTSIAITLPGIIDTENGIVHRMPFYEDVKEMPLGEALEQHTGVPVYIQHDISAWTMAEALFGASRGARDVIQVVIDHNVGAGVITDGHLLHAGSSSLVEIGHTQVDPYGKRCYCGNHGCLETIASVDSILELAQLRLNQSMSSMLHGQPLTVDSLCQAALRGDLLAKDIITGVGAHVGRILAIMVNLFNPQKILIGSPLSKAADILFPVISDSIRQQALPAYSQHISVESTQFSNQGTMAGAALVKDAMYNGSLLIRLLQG

Variants of: B1
Conditions: with mlc_ecoli mlc

Row | Variant | effect of a mutation on the interaction
1 | V449Q | disrupting interaction
2 | A451F | decreasing interaction
3 | Q456A | disrupting interaction

Reference: IntAct's records for PubMed 18319344
